Experimental data reported in the RNAGym collection of RNA variant scans (doi:10.1021/acssynbio.7b00057).

B1: Pistol ribozyme (parent)
chain: GGGUCGUUGUUCCAUAAUCGCGUGGAUAUGGCACGCAAGUUUCUACCGGGCACCGUAAAUGUCCGACUGGAGCCGUUCGGGCGGCUAUAAACAGACCUCAGGCCCGAAGCGUGGCGGCACCUGCCGCCGGUGGUAAAAAAGAUCGGAAGAGCACACGUCU

Variants of: B1
Assay: aptazyme ON/OFF ratio, guanine; higher = stronger switching; co-transcriptional cleavage with and without guanine

Row | Variant | aptazyme ON/OFF ratio
1 | U7A U8G G9A U11A C12U C13A | 1.37
2 | U7A U8G G9A U10G U11C C13A | 1.12
3 | U7A U8G G9A U10G U11C C13G | 1.1
4 | U7A U8G G9A U10G U11C C13U | 1.06
5 | U7A U8G G9C U10A U11G C12U C13G | 1.26
6 | U7A U8G G9C U10A U11G C12U C13U | 1.35
7 | U7A U8G G9C U10A U11G C12U C13A | 1.21
8 | U7A U8G G9A U11C | 1.33
9 | U7A U8G G9A U11G | 1.64
10 | U7A U8G G9A U11A | 1.7
11 | U7A U8G G9C U10C C12G C13G | 1.2
12 | U7A U8G G9C U10C C12G C13A | 1.23
13 | U7A U8G G9C U10C C12G C13U | 1.46
14 | U7A U8G G9C U10G C13A | 1.52
15 | U7A U8G G9C U10G C13G | 1.19
16 | U7A U8G G9C U10G C13U | 1.17
17 | U7A U8G G9A U10G U11A C12G | 1.28
18 | U7A U8G G9A U10G U11A C12U | 1.12
19 | U7A U8G G9A U10G U11A C12A | 1.28
20 | U7A U8G G9A U10G U11C C12A C13A | 1.2
21 | U7A U8G G9A U10G U11C C12A C13U | 1.38
22 | U7A U8G G9A U10G U11C C12A C13G | 1.36
23 | U7A U8G G9C U10A U11C C12G | 1.22
24 | U7A U8G G9C U10A U11C C12A | 1.29

Row | Variant | aptazyme ON/OFF ratio
25 | U7A U8G G9C U10A U11C C12U | 1.04
26 | U7A U8G G9A U10G U11A C12U C13U | 1.27
27 | U7A U8G G9A U10G U11A C12U C13G | 1.35
28 | U7A U8G G9A U10G U11A C12U C13A | 1.7
29 | U7A U8G G9C U10A U11C | 1.04
30 | U7A U8G G9C U10A U11A | 1.89
31 | U7A U8G G9C U10A U11G | 1.9
32 | U7A U8G G9C C12G C13A | 1.36
33 | U7A U8G G9C C12G C13U | 1.34
34 | U7A U8G G9C C12G C13G | 1.18
35 | U7A U8G G9C U10A U11C C12G C13U | 1.26
36 | U7A U8G G9C U10A U11C C12G C13A | 1.27
37 | U7A U8G G9C U10A U11C C12G C13G | 1.17
38 | U7A U8G G9C U10C U11A C12A | 1.21
39 | U7A U8G G9C U10C U11A C12G | 1.23
40 | U7A U8G G9C U10C U11A C12U | 1.13
41 | U7A U8G G9C U10C U11G C12U C13U | 1.41
42 | U7A U8G G9C U10C U11G C12U C13A | 1.15
43 | U7A U8G G9C U10C U11G C12U C13G | 1.15
44 | U7A U8G G9C C12U C13A | 1.4
45 | U7A U8G G9C C12U C13U | 1.21
46 | U7A U8G G9C C12U C13G | 1.22
47 | U7A U8G G9A U10G U11C C12U C13G | 1.09
48 | U7A U8G G9A U10G U11C C12U C13A | 1.32

Row | Variant | aptazyme ON/OFF ratio
49 | U7A U8G G9A U10G U11C C12U C13U | 1.14
50 | U7A U8G G9C U10C U11A C13U | 1.22
51 | U7A U8G G9C U10C U11A C13A | 1.16
52 | U7A U8G G9C U10C U11A C13G | 1.22
53 | U7A U8G G9C U10A U11A C12G | 1.36
54 | U7A U8G G9C U10A U11A C12U | 1.44
55 | U7A U8G G9C U10A U11A C12A | 1.5
56 | U7A U8G G9C U10C U11A C12U C13A | 1.13
57 | U7A U8G G9C U10C U11A C12U C13U | 1.2
58 | U7A U8G G9C U10C U11A C12U C13G | 1.18
59 | U7A U8G G9C U10A C12A C13U | 1.32
60 | U7A U8G G9C U10A C12A C13A | 1.25
61 | U7A U8G G9C U10A C12A C13G | 1.26
62 | U7A U8G G9C U10A U11C C12A C13G | 1.28
63 | U7A U8G G9C U10A U11C C12A C13A | 1.17
64 | U7A U8G G9C U10A U11C C12A C13U | 1.5
65 | U7A U8G G9C U10C U11C C12U C13G | 1.06
66 | U7A U8G G9C U10C U11C C12U C13U | 1.01
67 | U7A U8G G9C U10C U11C C12U C13A | 1.05
68 | U7A U8G G9C U10G U11A C12G C13A | 1.33
69 | U7A U8G G9C U10G U11A C12G C13G | 1.39
70 | U7A U8G G9C U10G U11A C12G C13U | 1.46
71 | U7A U8G G9A U11G C13A | 1.39
72 | U7A U8G G9A U11G C13G | 1.16

Row | Variant | aptazyme ON/OFF ratio
73 | U7A U8G G9A U11G C13U | 1.4
74 | U7A U8G G9C C13U | 1.42
75 | U7A U8G G9C C13G | 1.11
76 | U7A U8G G9C C13A | 1.47
77 | U7A U8G G9C U10A C12U C13G | 1.21
78 | U7A U8G G9C U10A C12U C13U | 1.11
79 | U7A U8G G9C U10A C12U C13A | 1.31
80 | U7A U8G G9C C12A | 1.78
81 | U7A U8G G9C C12U | 1.88
82 | U7A U8G G9C C12G | 1.29
83 | U7A U8G G9A U11C C12U C13A | 1.07
84 | U7A U8G G9A U11C C12U C13U | 1.46
85 | U7A U8G G9A U11C C12U C13G | 0.973
86 | U7A U8G G9A U10G | 1.43
87 | U7A U8G G9A U10C U11C C12G C13U | 1.04
88 | U7A U8G G9A U10C U11C C12G C13A | 1.11
89 | U7A U8G G9A U10C U11C C12G C13G | 1.09
90 | U7A U8G G9A U10C U11G C12U | 1.26
91 | U7A U8G G9A U10C U11G C12G | 1.33
92 | U7A U8G G9A U10C U11G C12A | 1.12
93 | U7A U8G G9C U10A U11G C12A C13G | 1.18
94 | U7A U8G G9C U10A U11G C12A C13A | 1.2
95 | U7A U8G G9C U10A U11G C12A C13U | 1.16
96 | U7A U8G G9A U10C C13G | 1.1

Row | Variant | aptazyme ON/OFF ratio
97 | U7A U8G G9A U10C C13U | 1.25
98 | U7A U8G G9C U10A U11G C12A | 1.07
99 | U7A U8G G9C U10A U11G C12U | 1.08
100 | U7A U8G G9C U10A U11G C12G | 1.35
101 | U7A U8G G9C U10G U11A C12A C13G | 1.38
102 | U7A U8G G9C U10G U11A C12A C13U | 1.47
103 | U7A U8G G9C U10G U11A C12A C13A | 1.16
104 | U7A U8G G9C U10A U11G C12G C13U | 1.25
105 | U7A U8G G9C U10A U11G C12G C13G | 1.72
106 | U7A U8G G9C U10A U11G C12G C13A | 1.14
107 | U7A U8G G9A U10C U11C C12A C13U | 1.04
108 | U7A U8G G9A U10C U11C C12A C13G | 1.22
109 | U7A U8G G9A U10C U11C C12A C13A | 1.09
110 | U7A U8G G9A U10C U11A C12G | 1.13
111 | U7A U8G G9A U10C U11A C12U | 1.2
112 | U7A U8G G9A U10C U11A C12A | 1.24
113 | U7A U8G G9C U10C C12A C13A | 1.08
114 | U7A U8G G9C U10C C12A C13U | 1.12
115 | U7A U8G G9C U10C C12A C13G | 1.05
116 | U7A U8G G9A U10G U11C C12G C13U | 1.22
117 | U7A U8G G9A U10G U11C C12G C13A | 1.4
118 | U7A U8G G9A U10G U11C C12G C13G | 1.23
119 | U7A U8G G9C | 1.97
120 | U7A U8G G9C U10A U11A C12A C13G | 1.35

Row | Variant | aptazyme ON/OFF ratio
121 | U7A U8G G9C U10A U11A C12A C13U | 1.38
122 | U7A U8G G9C U10A U11A C12A C13A | 1.5
123 | U7A U8G G9C U10G C12U C13G | 1.23
124 | U7A U8G G9C U10G C12U C13U | 1.38
125 | U7A U8G G9C U10G C12U C13A | 1.48
126 | U7A U8G G9C U10C U11C C13U | 1.04
127 | U7A U8G G9C U10C U11C C13G | 1.02
128 | U7A U8G G9C U10C U11C C13A | 0.995
129 | U7A U8G G9A U10G C12U C13U | 1.24
130 | U7A U8G G9A U10G C12U C13G | 1.36
131 | U7A U8G G9A U10G C12U C13A | 1.43
132 | U7A U8G G9A U10C U11A C13G | 1.1
133 | U7A U8G G9A U10C U11A C13U | 1.2
134 | U7A U8G G9A U10C U11A C13A | 1.16
135 | U7A U8G G9A U10C U11C C12U | 1.08
136 | U7A U8G G9A U10C U11C C12G | 1.07
137 | U7A U8G G9A U10C U11C C12A | 1.13
138 | U7A U8G G9A U10G C12G C13U | 1.33
139 | U7A U8G G9A U10G C12G C13A | 1.5
140 | U7A U8G G9A U10G C12G C13G | 1.17
141 | U7A U8G G9A U11C C12A C13A | 1.14
142 | U7A U8G G9A U11C C12A C13U | 1.38
143 | U7A U8G G9A U11C C12A C13G | 1.3
144 | U7A U8G G9C U10A U11C C13G | 1.04

Row | Variant | aptazyme ON/OFF ratio
145 | U7A U8G G9C U10A U11C C13U | 1.04
146 | U7A U8G G9C U10A U11C C13A | 1.04
147 | U7A U8G G9A U11G C12U | 1.36
148 | U7A U8G G9A U11G C12G | 1.32
149 | U7A U8G G9A U11G C12A | 1.14
150 | U7A U8G G9C U10C U11C C12G | 1.05
151 | U7A U8G G9C U10C U11C C12U | 0.975
152 | U7A U8G G9C U10C U11C C12A | 1.06
153 | U7A U8G G9C U10G C12A | 1.27
154 | U7A U8G G9C U10G C12G | 1.15
155 | U7A U8G G9C U10G C12U | 1.44
156 | U7A U8G G9C U10A U11G C13G | 1.26
157 | U7A U8G G9C U10A U11G C13U | 1.37
158 | U7A U8G G9C U10A U11G C13A | 1.29
159 | U7A U8G G9A U10G C12A C13G | 1.13
160 | U7A U8G G9A U10G C12A C13U | 1.31
161 | U7A U8G G9A U10G C12A C13A | 1.39
162 | U7A U8G G9A U10C U11G C12U C13U | 1.23
163 | U7A U8G G9A U10C U11G C12U C13A | 1.21
164 | U7A U8G G9A U10C U11G C12U C13G | 1.33
165 | U7A U8G G9C U10C C12G | 1.4
166 | U7A U8G G9C U10C C12A | 1.15
167 | U7A U8G G9C U10C C12U | 1.24
